Reference: patent US9791436B2, “Protease-based biosensor” (priority 2012, dated 2017)

Key:
[1] = target: T1, PDZ ligand peptide-1 (RGSIDTWV) (Homo sapiens, UniProt Q96RT1); experiment: Protease signalling cascade: SH3-tagged TVMV-based allosteric receptor coupled to HCV-based signal amplifier, ligand titration; assay type: biochemical
T1 construct: made in house; host or cells: E. coli BL21(DE3)-RIL
Protocol: Signalling cascades consisting of SH3-domain-tagged TVMV-based allosteric receptors (10 nM) and SH3-peptide-tagged TVMV-inducible HCV-based signal transducers (200 nM) were measured in protease assay buffer consisting of 50 mM Tris-HCl, 200 mM NaCl and 1 mM DTT, pH 8.0. The reaction was strictly initiated by simultaneously adding the TVMV-based allosteric receptor and HCV substrate peptide to a final concentration of 10 μM along with the PDZ ligand peptide-1 ([…]) at a final concentration of 10 μM. To determine the KD of TVMV-based allosteric receptors, the PDZ ligand peptide-1 ([…]) was suitably diluted over a concentration range from 2 nM to 400 nM as indicated in FIG. 13B. To determine the KD, initial rates were plotted against ligand concentrations and the fitted values analysed by non-linear regression assuming a one-site specific binding model (GraphPad Prism 5).

bovine thrombin = target: T2, bovine thrombin (Bos taurus, UniProt P00735); experiment: Thrombin induction of autoinhibited TVMV-based biosensor protease activity (quenched fluorescent TVMV substrate); assay type: biochemical; settings: biosensor 1 μM, 10 μM protease substrate, presence vs absence of bovine thrombin (1 U per 200 μL)
T2 construct: addition of bovine thrombin (1 U per 200 μL)
Protocol: Libraries of autoinhibited TVMV mutants were transformed into chemically competent BL21(DE3)-RIL cells hosting the autolysis plasmid 05665 (FIG. 2A) and plated onto LB agar plates supplemented with 100 μg/mL carbenicillin, 50 μg/mL kanamycin and 34 μg/mL chloramphenicol. Following overnight incubation at 37° C., single colonies were inoculated into 96 deep-well plates filled with minimal auto-induction medium (1 mL) which was supplemented with 100 μg/mL carbenicillin, 50 μg/mL kanamycin and 34 μg/mL chloramphenicol. Cells were left to grow for 72 h at 30° C. at 320 rpm and typically reached OD values of approximately 10. To lyse cells, aliquots of cell cultures (100 μL) from half a 96-well-plate (48 samples) were diluted two-fold into autolysis medium (100 μL) and left to incubate for 90 min at 30° C. at 200 rpm. Aliquots of cell lysates (10 μL) were duplicated after transferring them into separate halves of a black 96-well-plate filled with protease assay buffer (140 μL). One of the halves additionally contained 1 U thrombin in order to cleave the linker connecting TVMV to its autoinhibition domain and relieve autoinhibtion. The reaction was initiated following the addition of substrate solution (50 μL) which gave rise to 10 μM TVMV substrate peptide in the final reaction. The reaction was monitored using a fluorometer (Biotek Synergy 4) by measuring the release of a quenched fluorophore (7-Methoxycoumarinyl-4-acetyl) at 405 nm following excitation at 330 nm. The induction of TVMV-based protease activities was evaluated by comparing the time course of the reactions in the presence and absence of thrombin. The plasmids encoding for desirable mutants were subsequently isolated from single colonies and their identity confirmed by Sanger sequencing.
To measure induction ratios under saturating reaction conditions, TVMV- and HCV-based signal transducers (5 μg) were pre-incubated for 10 min in 150 μL protease assay buffer (50 mM Tris-HCl, 1 mM DTT and 0.5 mM EDTA, pH 8.0 for TVMV, and 50 mM Tris-HCl, 50 mM NaCl and 1 mM DTT, pH 8.0 for HCV) in the presence and absence of the inducing protease: i.e. 1 U thrombin, 1 U Factor Xa, 5 μg PSA, 1 μg MMP-7 and 1 μg for MMP-9 for TVMV-based signal transducers as indicated, and 5 μg TVMV for HCV-based signal transducers. The reaction was initiated following the addition of 50 μL substrate solution that contained 40 μM peptide substrate and gave rise to 10 μM peptide substrate in a final reaction volume of 200 μL. The reaction was monitored using a fluorometer (Biotek Synergy 4) by measuring the release of 7-Methoxycoumarinyl-4-acetyl from the quenched substrate peptide at 405 nm following excitation at 330 nm. The induction ratio of TVMV-based protease activities in the inhibited and uninhibited state was evaluated by comparing the reaction in the presence and absence of the activating protease. Activity traces labelled as ‘Background’ generally denote control samples that contain peptide substrate, but no enzyme.
The biosensor (1 μM) was incubated together with 10 μM protease substrate in 50 mM Tris-HCl, 1 mM DTT and 0.5 mM EDTA. Relief of autoinhibition was achieved upon addition of bovine thrombin (1 U per 200 μL).

B1: SH3-TVMV-AC-AI-37-2: SH3-domain-tagged TVMV-based allosteric receptor, SEQ ID NO: 28 (protein)
chain: SGGSGAEYVRALFDFNGNDEEDLPFKKGDILRIRDKPEEQWWNAEDSEGKRGMIPVPYVEKYRPASASVSALIGGRGGSGGSGGSGGSGGSGGSSKALLKGVRDFNPISACVCLLENSSDGHSERLFGIGFGPYIIANQHLFRRNNGELTIKTMHGEFKVKNSTQLQMKPVEGRDIIVIKMAKDFPPFPQKLKFRQPTIKDRVCMVSTNFQQKSVSSLVSESSHIVHKEDTSFWQHWITTKDGQCGSPLVSIIDGNILGIHSLTHTTNGSNYFVEFPEKFVATYLDAADGWCKNWKFNADKISWGSFILWESGSPELGFSISGGVGGRGNPFRPDDDGIFVTRVQPEGPASKLLQPGDKIIQANGYSFINIEHGQAVSLLKTFQNTVELIIVREVGNGAKQEIRVRVEKDGGSGGGGVSSVPTNLEVVAATPTSLLISWDAYRELPVSYYRITYGETGGNSPVQEFTVPGSKSTATISGLKPGVDYTITVYAHYNYHYYSSPISINYRGPGREYVRFAPGSTHHHHHH
modifications: protease construct
[1]
  improvement of the sensitivity of the assay: 20 fold
[1]; FIG. 13B
  concentration of receptor faithfully detected: 5 nM

B2: 2B4-AP: thrombin-inducible autoinhibited TVMV biosensor, SEQ ID NO: 3 (protein)
chain: SSGSKALLKGVRDFNPISACVCLLENSSDGHSERLFGIGFGPYIIANQHLFRRNNGELTIKTMHGEFKVKNSTQLQMKPVEGRDIIVIKMAKDFPPFPQKLKFRQPTIKDRVCMVSTNFQQKSVSSLVSESSHIVHMRDTSFWQHWITTKDGQCGSPLVSIIDGNILGIHSLTHTTNGSNYFVEFPEKFVATYLDAADGWCKNWKFNADKISWGSFTLVEDAPSGLVPRGVSGEGETVRFAPGSTHHHHHH
modifications: protease construct
Bovine thrombin
  Fold Induction: ~25 fold

B3: 68-GP: thrombin-inducible autoinhibited TVMV biosensor, SEQ ID NO: 4 (protein)
chain: SSGSKALLKGVRDFNPISACVCLLENSSDGHSERLFGIGFGPYIIANQHLFRRNNGELTIKTMHGEFKVKNSTQLQMKPVEGRDIIVIKMAKDFPPFPQKLKFRQPTIKDRVCMVSTNFQQKSVSSLVSESSHIVHMRDTSFWQHWITTKDGQCGSPLVSIIDGNILGIHSLTHTTNGSNYFVEFPEKFVATYLDAADGWCKNWKFNADKISWGSFILWEDSGLVPRGVSGEGEYVRFGPGSTHHHHHH
modifications: protease construct
Bovine thrombin
  Fold Induction: ~60 fold

B4: 68-AP: thrombin-inducible autoinhibited TVMV biosensor, SEQ ID NO: 5 (protein)
chain: SSGSKALLKGVRDFNPISACVCLLENSSDGHSERLFGIGFGPYIIANQHLFRRNNGELTIKTMHGEFKVKNSTQLQMKPVEGRDIIVIKMAKDFPPFPQKLKFRQPTIKDRVCMVSTNFQQKSVSSLVSESSHIVHMRDTSFWQHWITTKDGQCGSPLVSIIDGNILGIHSLTHTTNGSNYFVEFPEKFVATYLDAADGWCKNWKFNADKISWGSFILWEDSGLVPRGVSGEGEYVRFAPGSTHHHHHH
modifications: protease construct
Bovine thrombin
  Fold Induction: ~100 fold

B5: H6-143: thrombin-inducible autoinhibited TVMV biosensor, SEQ ID NO: 6 (protein)
chain: SSGSKALLKGVRDFNPISACVCLLENSSDGHSERLFGIGFGPYIIANQHLFRRNNGELTIKTMHGEFKVKNSTQLQMKPVEGRDIIVIKMAKDFPPFPQKLKFRQPTIKDRVCMVSTNFQQKSVSSLVSESSHIVHKEDTSFWQHWITTKDGQCGSPLVSIIDGNILGIHSLTHTTNGSNYFVEFPEKFVATYLDAADGWCKNWKFNADKISWGSFYLYEDAPEDFMSGLVPRGVGREYVRFAPGSTHHHHHH
modifications: protease construct
Bovine thrombin
  Fold Induction: ~60 fold

B6: H6-68: thrombin-inducible autoinhibited TVMV biosensor, SEQ ID NO: 7 (protein)
chain: SSGSKALLKGVRDFNPISACVCLLENSSDGHSERLFGIGFGPYIIANQHLFRRNNGELTIKTMHGEFKVKNSTQLQMKPVEGRDIIVIKMAKDFPPFPQKLKFRQPTIKDRVCMVSTNFQQKSVSSLVSESSHIVHKEDTSFWQHWITTKDGQCGSPLVSIIDGNILGIHSLTHTTNGSNYFVEFPEKFVATYLDAADGWCKNWKFNADKISWGSFILWEDAPEDFMSGLVPRGVGREYVRFAPGSTHHHHHH
modifications: protease construct
Bovine thrombin
  Fold Induction: ~150-200 fold

B7: H6-AP: thrombin-inducible autoinhibited TVMV biosensor, SEQ ID NO: 1 (protein)
chain: SSGSKALLKGVRDFNPISACVCLLENSSDGHSERLFGIGFGPYIIANQHLFRRNNGELTIKTMHGEFKVKNSTQLQMKPVEGRDIIVIKMAKDFPPFPQKLKFRQPTIKDRVCMVSTNFQQKSVSSLVSESSHIVHKEDTSFWQHWITTKDGQCGSPLVSIIDGNILGIHSLTHTTNGSNYFVEFPEKFVATYLDAADGWCKNWKFNADKISWGSFTLVEDAPEDFMSGLVPRGVGRETVRFAPGSTHHHHHH
modifications: protease construct
Bovine thrombin
  Fold Induction: ~50 fold

B8: 2B4-GP: thrombin-inducible autoinhibited TVMV biosensor, SEQ ID NO: 2 (protein)
chain: SSGSKALLKGVRDFNPISACVCLLENSSDGHSERLFGIGFGPYIIANQHLFRRNNGELTIKTMHGEFKVKNSTQLQMKPVEGRDIIVIKMAKDFPPFPQKLKFRQPTIKDRVCMVSTNFQQKSVSSLVSESSHIVHMRDTSFWQHWITTKDGQCGSPLVSIIDGNILGIHSLTHTTNGSNYFVEFPEKFVATYLDAADGWCKNWKFNADKISWGSFTLVEDAPSGLVPRGVSGEGETVRFGPGSTHHHHHH
modifications: protease construct
Bovine thrombin
  Fold Induction: ~17 fold
